Laboratory results from patent publication US20180362643A1 (Amgen, published 2018).
Numbering of substitutions follows the chain as printed. Values belong to the binder of their own block, whether it stands above or below them. Ends that are not written are not given here.

Assays:
[1] = biological target: T1, full-length human PACAP38 (human, not fully specified); assay: cell-based or functional assay
T1 peptide: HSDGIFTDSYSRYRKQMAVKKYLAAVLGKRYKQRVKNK

[2] = biological target: T2, human PACAP27 (human, not fully specified); assay: cell-based or functional assay
T2 peptide: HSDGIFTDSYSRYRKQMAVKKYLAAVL

[3] = biological target: T3, carboxy terminal PACAP38 peptide (amino acids 28-38) (human, ends and bridges not checked); assay: ELISA screen of B-cell culture supernatant
T3 construct: also called C-terminal Peptide; C-terminal PACAP peptide
T3 peptide: GKRYKQRVKNK

[4] = biological target: T4, vasoactive intestinal peptide (VIP) (human); assay: ELISA screen of B-cell culture supernatant; VIP at 100 ng/mL
T4 construct: also called human VIP
T4 peptide: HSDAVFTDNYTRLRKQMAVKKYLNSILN

[5] = biological target: T5, PACAP38 peptide fragment 27-38 (human, ends and bridges not checked); assay: SPR (Biacore 3000) solution competition against immobilised PACAP38
T5 construct: also called peptide No. 6
T5 peptide: LGKRYKQRVKNK

[6] = biological target: T3, carboxy terminal PACAP38 peptide (amino …); assay: ELISA screen of B-cell culture supernatant; C-terminal peptide at 500 ng/mL
From the text: (§1) Rabbits were immunized with human PACAP38 peptide ([…]; SEQ ID NO: 1). Monoclonal antibodies were generated from the immunized rabbits using the Selected Lymphocyte Antibody Method (SLAM) as described in Babcook et al., Proc. Natl. Acad. Sci. USA, Vol. 93: 7843-7848, 1996. Briefly, B cells were harvested from spleens from the immunized rabbits and expanded in culture. The supernatant from the expanded B-cell cultures was initially screened for binding to an amino terminal PACAP38 peptide ([…]; SEQ ID NO: 5) and a carboxy terminal PACAP38 peptide ([…]; SEQ ID NO: 4) using an ELISA assay. From the initial screen, 2,935 N-terminal and/or C-terminal binders were identified. The affinity of these antibodies for full-length human PACAP38 (SEQ ID NO: 1) was assessed by ELISA assay.

[7] = biological target: T1, full-length human PACAP38; assay: ELISA screen of B-cell culture supernatant; full-length PACAP38 at 10 ng/mL
From the text: as §1

[8] = biological target: T6, PACAP38 peptide fragment 6-37 (human); assay: SPR (Biacore 3000) solution competition: antibody pre-incubated 1:200 with the fragment, then injected over immobilised PACAP38
T6 construct: also called peptide No. 3
T6 peptide: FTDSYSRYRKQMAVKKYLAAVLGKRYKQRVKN
Method: (§2) In this experiment, various peptide fragments of PACAP38 were incubated with each of the six antibodies (mAb1, mAb2, mAb3, mAb4, mAb5, and mAb6) described in Example 2 and evaluated for their ability to inhibit binding of the antibodies to full-length PACAP38 immobilized on the sensor-chip. The binding epitopes for each of the antibodies were deduced from the set of peptides that were able to inhibit the binding of each antibody to full-length PACAP38.
(§3) Each of the six anti-PACAP antibodies was incubated at a 1:200 molar ratio (Ab: peptide fragment) with each of the peptide fragments in Table 9 at an ambient temperature for 2 hours prior to analysis. […] A second control containing 6.5 nM antibody was prepared in sample diluent to be used as the untreated control sample for each antibody. Full-length PACAP38, buffer, and each peptide fragment were also tested to evaluate non-specific binding to the immobilized PACAP38 surface.

[9] = biological target: T7, PACAP38 peptide fragment 6-35 (human); assay: as above
T7 construct: also called peptide No. 4
T7 peptide: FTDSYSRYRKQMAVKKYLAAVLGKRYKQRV
Method: as §2, §3

[10] = biological target: T8, PACAP38 peptide fragment 4-27 (human); assay: as above
T8 construct: also called peptide No. 9
T8 peptide: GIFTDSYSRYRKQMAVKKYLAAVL
Method: as §2, §3

[11] = biological target: T9, PACAP38 peptide fragment 6-38 (human, not fully specified); assay: as above
T9 construct: also called peptide No. 11
T9 peptide: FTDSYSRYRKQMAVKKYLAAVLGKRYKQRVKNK
Method: as §2, §3

[12] = biological target: T10, PACAP38 peptide fragment 6-36 (human); assay: as above
T10 construct: also called peptide No. 12
T10 peptide: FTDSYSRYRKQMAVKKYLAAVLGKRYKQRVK
Method: as §2, §3

[13] = biological target: T11, PACAP38 peptide fragment 6-20 (human); assay: as above
T11 construct: also called peptide No. 13
T11 peptide: FTDSYSRYRKQMAVK
Method: as §2, §3

[14] = biological target: T12, 31-38 (ends and bridges not checked); assay: SPR (Biacore 3000), solution competition with the peptide for antibody binding to immobilised full-length PACAP38; % inhibition
T12 construct: also called PACAP38 peptide fragment 31-38; peptide No. 5
T12 peptide: YKQRVKNK
Method: (§4) The binding epitopes of anti-PACAP antibodies were evaluated by using the Biacore 3000 biosensor-based instrument (GE Healthcare USA). The Biacore 3000 instrument utilizes surface plasmon resonance (SPR) technology to measure mass increase on the sensor-chip surface. The binding interactions are measured in real-time and recorded as Response Units (RU). Each binding profile (cycle) is stored in a “sensorgram” in real-time. Generally, Biacore technology entails immobilizing a ligand of interest on to a flow-cell of the sensor-chip via a coupling chemistry. The analyte (e.g. putative binding partner to the ligand of interest) is injected across the immobilized ligand allowing it to bind to the ligand-immobilized surface. The magnitude of the response is directly proportional to the mass increase on the immobilized surface due to the binding of the analyte.
as §2, §3

[15] = biological target: T13, 30-37; assay: as above
T13 construct: also called PACAP38 peptide fragment 30-37; peptide No. 19
T13 peptide: RYKQRVKN
Method: as §4, §2, §3

[16] = biological target: T14, PACAP38 peptide fragment 14-38 (human, not fully specified); assay: as above
T14 construct: also called peptide No. 7
T14 peptide: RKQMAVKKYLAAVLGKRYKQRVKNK
Method: as §4, §2, §3

[17] = biological target: T15, PACAP38 peptide fragment 11-27 (human); assay: as above
T15 construct: also called peptide No. 8
T15 peptide: SRYRKQMAVKKYLAAVL
Method: as §4, §2, §3

[18] = biological target: T16, PACAP38 peptide fragment 34-38 (human, ends and bridges not checked); assay: as above
T16 construct: also called peptide No. 17; RVKNK
T16 peptide: RVKNK
Method: as §4, §2, §3

[19] = biological target: T17, amino terminal PACAP38 peptide (amino acids 1-13) (human); assay: ELISA screen of B-cell culture supernatant; N-terminal peptide at 500 ng/mL; ELISA screen of B-cell culture supernatant (Example 1); N-terminal peptide 500 ng/mL; optical density
T17 construct: also called N-terminal Peptide; N-terminal PACAP peptide
T17 peptide: HSDGIFTDSYSRY
From the text: as §1

[20] = biological target: T4, vasoactive intestinal peptide (VIP); assay: ELISA screen of B-cell culture supernatant
[21] = biological target: T17, amino terminal PACAP38 peptide (amino …); assay: ELISA screen of B-cell culture supernatant; N-terminal peptide at 500 ng/mL
[22] = biological target: T17, amino terminal PACAP38 peptide (amino …); assay: SPR (Biacore 3000), solution competition with the peptide for antibody binding to immobilised full-length PACAP38; % inhibition
Method: as §4, §2, §3

[23] = biological target: T11, PACAP38 peptide fragment 6-20; assay: as above
Method: as §4, §2, §3

[24] = biological target: T5, PACAP38 peptide fragment 27-38; assay: SPR (Biacore 3000), solution competition: antibody pre-incubated 2 h with the peptide at 1:200 molar ratio (Ab:peptide), then injected over immobilised full-length PACAP38; readout % inhibition of antibody binding (filing counts >50 % as reactive)
Method: as §4, §2, §3

[25] = biological target: T18, PACAP38 peptide fragment 26-33 (human); assay: SPR (Biacore 3000) solution competition against immobilised PACAP38
T18 construct: also called peptide No. 2
T18 peptide: VLGKRYKQ

[26] = biological target: T12, 31-38; assay: SPR (Biacore 3000), solution competition: antibody pre-incubated 2 h with the peptide at 1:200 molar ratio (Ab:peptide), then injected over immobilised full-length PACAP38; readout % inhibition of antibody binding (filing counts >50 % as reactive)
Method: as §4, §2, §3

IC50: inhibition of PACAP38 (10 pM)-induced activation of human PAC1 receptor, cAMP assay in SH-SY5Y (CRL-2266) cells, POC versus antibody concentration [1]: 12 nM
IC50: inhibition of PACAP27 (10 pM)-induced activation of human PAC1 receptor, cAMP assay in SH-SY5Y (CRL-2266) cells, POC versus antibody concentration [2]: 3.7 nM
binding result [3]: no binding (tested: 500 ng/mL)
Optical Density [4]: 0.24 OD
Optical Density [6]: 0.05 OD
Optical Density [7]: 2.09 OD
binding result [8]: binds
binding result [9]: binds
binding result [10]: binds
binding result [11]: binds
binding result [12]: binds
binding result [13]: binds
Optical Density [19]: 3.68 OD
B1: mAb4 (antibody, V domains shown)
VH: QSVEESGGRLVTPGTPLTLTCTASGIDLSSYAMIWVRQAPGEGLEYIGFIDAGDGNTYYASWAKGRFTISKTSTTVDLKITSPTTEDTATYFCARGDPGWSNGFALWGQGTLVTVSS
VL: DIVMTQTPASVSGAVGGTVTIKCQASQSIRNELSWYQQKPGQPPKLLIYKASTLASGVPSRFSGSGFGTEFTLTISGVQCDDAATYYCQNNYGTRRNNYVFPFGGGTEVVVKG
notes: Rabbit monoclonal antibody (SLAM), recombinant; also called monoclonal anti-PACAP antibody 4; 4 (c47)
binding result [5]: no binding (tested: 1:200 molar ratio (Ab: peptide fragment))
binding result [14]: no binding (tested: 1:200 molar ratio (Ab:peptide))
binding result [15]: no binding (tested: 1:200 molar ratio (Ab:peptide))
binding result [16]: no binding (tested: 1:200 molar ratio (Ab:peptide))
binding result [17]: no binding (tested: 1:200 molar ratio (Ab:peptide))
binding result [18]: no binding (tested: 1:200 molar ratio (Ab:peptide))

binding result [20]: no binding (tested: 100 ng/mL)
Optical Density [4]: 0.07 OD
Optical Density [6]: 3.59 OD
Optical Density [21]: 0.06 OD
binding result [24]: binds
B2: mAb3 (antibody, V domains shown)
VH: QSLEESGGGLVQPGASLTLTCTASGFSFSSNYYMCWVRQAPGKGLEWIACIFTGSSGSTYYASWAKGRFTISKTSSTTVTLHVTSLTAADTATYFCARDRALSVVGYFYAAYYFDFWGPGTLVTVSS
VL: DVVMTQTPSPVSAAVGGTVTINCRASEDIESFLAWYQQKPGQPPKLLMSRTSTLESGVPSRFKGSGSGTEFTLTISDLECADAATYYCQCTDGSSSSSSYGWDAFGGGTEVVVKG
notes: Rabbit monoclonal antibody (SLAM), recombinant; also called monoclonal anti-PACAP antibody 3; 3 (c89)
binding result [15]: no binding (tested: 1:200 molar ratio (Ab:peptide))
binding result [22]: no binding (tested: 1:200 molar ratio (Ab:peptide))
binding result [23]: no binding (tested: 1:200 molar ratio (Ab:peptide))
binding result [18]: no binding (tested: 1:200 molar ratio (Ab:peptide))

binding result [20]: no binding (tested: 100 ng/mL)
Optical Density [4]: 0.08 OD
Optical Density [6]: 5.33 OD
Optical Density [21]: 0.05 OD
binding result [26]: binds
binding result [24]: binds
B3: mAb1 (antibody, V domains shown)
VH: QSLEESGGDLVKPGASLTLTCKASGIAFSNDYMCWVRQAPGKGLEWIACIFTGSSGSTYYASWAKGRFTISKTSSTTVTLQMTSLTAADTATYFCARDRAISVLGYFYAAYFFDFWGPGTLVTVSS
VL: B2 VL with M48I, P59S, T72I
notes: Rabbit monoclonal antibody (SLAM), cloned, recombinantly expressed and purified; also called monoclonal anti-PACAP antibody 1; 1 (c20)
binding result [25]: no binding (tested: 1:200 molar ratio (Ab: peptide fragment))
binding result [22]: no binding (tested: 1:200 molar ratio (Ab:peptide))
binding result [23]: no binding (tested: 1:200 molar ratio (Ab:peptide))
